In paper PMC11162806 (Nucleic Acids Research, 2024):

T1: TwinStrep-tagged UPF1 CH domain (residues 110-282) (human, UniProt Q92900 110-282)
T1 sequence (looked up): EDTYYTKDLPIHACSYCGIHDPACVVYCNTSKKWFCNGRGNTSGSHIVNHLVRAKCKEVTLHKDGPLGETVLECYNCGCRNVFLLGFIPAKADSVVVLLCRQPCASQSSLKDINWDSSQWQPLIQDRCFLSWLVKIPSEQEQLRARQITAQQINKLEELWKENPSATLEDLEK


Biological target: T1, TwinStrep-tagged UPF1 CH domain …
Experiment: ITC

Row | Kd [nM] | Binder
1 | 4280 ± 250 | EKQESKNPKQELRGRGRGILILPAHTTLSVNSAGSPESAPL (domain or fragment, human, UniProt Q86US8 390-430, looked up) [MBP-tagged SMG6 residues 390-430 (SMG6 CH-binding domain)]
2 | 1460 ± 250 | MBP-tagged UPF2 residues 1095-1250 (UPF2 CH-binding domain) (domain or fragment, human, UniProt Q9HAU5 1095-1250, looked up) VMIKGGGLKHVPCVEDEDFIQALDKMMLENLQQRSGESVKVHQLDVAIPLHLKSQLRKGPPLGGGEGEAESADTMPFVMLTRKGNKQQFKILNVPMSSQLAANHWNQQQAEQEERMRMKKLTLDINERQEQEDYQEMLQSLAQRPAPANTNRERRP
